Columns and labels:
Type in all cases: biochemical, uncultured organism
[1] = substrate: O=C1Nc2ccccc2C1=O; test: amidohydrolase activity, Michaelis-Menten or Hill fit; details: metal-dependent amidohydrolase activity
Source text: amidohydrolase activity, Michaelis-Menten or Hill fit on MGS0169

[2] = substrate: CC(=O)Oc1ccc([N+](=O)[O-])cc1; test: spectrophotometric ester hydrolysis, Michaelis-Menten or Hill fit; details: metal-dependent; 0.1 mM MnCl2 stated for the Figure 4 and 7 assays
Source text: (§1) spectrophotometric ester hydrolysis, Michaelis-Menten or Hill fit on MGS0169

[3] = substrate: CC(=O)Oc1cccc2ccccc12; test: as above; details: metal-dependent; 0.1 mM MnCl2 stated for the Figure 4 and 7 assays
Source text: as §1

[4] = substrate: CCC(=O)Oc1cccc2ccccc12; test: as above; details: metal-dependent; 0.1 mM MnCl2 stated for the Figure 4 and 7 assays
Source text: as §1

B1: MGS0169 (uncultured organism) (protein)
chain: MAHAEGPALHPHEKLNNWGKWGDDDQRGAANYITPERIVAAARLIQTGKTFSLAIPIDSNGPVFPPRLPPHHTMEITGADYVADPGASPFGKSPIRFADDYIYMPLQGSTQWDALSHGWYGESLYNGVPEAAIRSSGAGGATKLGIENVKTSFLGRGVLVDIVRFKGGSLPEGYTITRADLEGALAKQKSKLLPGDILVIRTGLVESWYDLDPVGRASFFLNPMTGIGSDTVPWIHEQRLAGVAADNIALERVPHERAPELALPVHGNLLRDLGVYIGEIWWLEELAKDCAQDGRYEFFLAAQPLYIPGAVGSPLNPIAVK
notes: N-terminal 6His tag (modified pET15b), E. coli BL21(DE3), Ni-NTA purified; predicted 37 kDa, tetramer; crystal construct 21-341 aa
With B1 the Km [1] was 19.7 ± 4.2 mM, the kcat [1] was 1.9 ± 0.2 s⁻¹ and the kcat/Km [1] was 100 M⁻¹ s⁻¹. The Km [2] was 0.40 ± 0.29 mM, the kcat [2] was 71.2 ± 1.7 s⁻¹ and the kcat/Km [2] was 180000 M⁻¹ s⁻¹. For the same protein, the Km [3] was 0.49 ± 0.11 mM, the kcat [3] was 14.9 ± 1.2 s⁻¹ and the kcat/Km [3] was 30000 M⁻¹ s⁻¹. For the same protein, the Km [4] was 0.42 ± 0.12 mM, the kcat [4] was 14.7 ± 1.4 s⁻¹ and the kcat/Km [4] was 40000 M⁻¹ s⁻¹.
